{"source": "paper PMC12493190", "origin": "cited, not measured here", "key": {"[1]": {"molecular_target": "phospho-ubiquitin (Homo sapiens) (UniProt P0CG47)"}, "[2]": {"molecular_target": "parkin pUbl Ubl (Homo sapiens) (UniProt O60260)", "sequence (O60260 1-76)": "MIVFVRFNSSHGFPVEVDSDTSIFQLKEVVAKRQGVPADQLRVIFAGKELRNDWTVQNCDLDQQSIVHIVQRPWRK"}}}
{"substance": "parkin RING0 (from UniProt O60260)", "values": [{"measurement": "Kd", "setting": "[1]", "value": 400, "unit": "nM"}, {"measurement": "Kd", "setting": "[2]", "value": 1000, "unit": "nM"}]}
